Test results from a protein production outcome set (Wang et al. 2014).

Assay: label from the status in PepcDB records

Row | Sequence | protein production
1 | MPLEASELKPTAGPLEASELKPTAGPLEASELKPTAGPLEASELKPTAGPLEASELKPTAGPLEASELKPTAGPLEASELKPTAGMEKTKKIAVMSGKGGVGKTTVAVNLAVALAAEGYQVGLLDLDLHGPNVQRMLGVSLPPSEGEKIVPAKYGDSLKVFSLAMILQEGAPVIWRGPLKHKAIEQLTRDVEWGDLDYLICDLPPGTGDEALSTFQIIKPDAVIVVSTPQKVAGDDVRRAINFVKRLSGKILGLVENMSYLVCPNCGEKIYVFGKGETEKLAEEFGIPLIARIPMDPEVVSLSDEGRPAVVYKRGTVIEEEFKKIVEKVLSLLEHHHHHH | failed
2 | MTASNPTILALDFDGVICDGLIEYFEVAWRTYCQIWSPAENTPPDDLALRFYRLRPVIETGWEMPVLIKALVDGNSDDQILQEWTSITPKILLDDKLQAKEIATKLDGLRDEWIANDLDGWLSLHRFYQGVIEKLKIAVASEVKLYIVTTKEGRFVEQLLHQEGVDLPRDAIFGKEVKRPKYEIIRELIQAADHEPVSLWFVEDRIKTLQLVQQQSDLEDVKLFLADWGYNTQSERKAAQSDPRIQLLSLSQFAKDFPGWV | failed
3 | MTEKKIDFKKEEKKFYAPKRKPERIFVPEMNFLMVDGKGDPDGEEYQKAVQSLYAIAYTIKMSKMGETRLDGYSDFVVPPLEGFWWSEGKFDLKDRDAWLWTSILRQPDFVTEEVLEWAKEVARKKKPDVDTSRVKLVRFEEGECVQMMHVGPFSEEVHTVAEMHQFMETEGLRNDTGAIRKHHEIYLSDPRKANPEKMKTILRLPVS | not failed
4 | MARPRDRQKLDAVKVVETLDNLHARVSERFPASGLAMVCARLADTGRQTAARARRIGRPYLLLRALVVLIIVGGVALEFALAWRLDWSAALRAREGFDLAQGLEAAINLALLSGAAAWFLSSLERRWKQQRVQVALHELRSFCHVIDMHQLTKDPSVILGPRTRHSPPREMSNFQLSRYLDYCAEMLALTAKLAALYAGETDDPVIIAAVNDIETLASDLGRKIWQKIMILGQLNEAAAAQA | failed
5 | MVLTLDLADPAQPEHVFIVEDSRGATELKLYKSHYTIGKADSCDIRLHSIYASRQHATLVRFLTENGEVRYRLIDGDPETSRRSANGTYVNNRSITECDLKHYDQILFGADVKATYFYLSPQFRSLEHHHHHH | not failed
6 | MTEFALDTSTGITIIVLFGVFWVAFGYWLGRKNRSHEDFALAGRNVGFAFAAATAMATWVTSNTTLVAPQLTYQFGIWGMVGYSFAALGLVLFAPMAKRIKELLPNGYTSGDFVRLRYGNLAWLVFIIISVVYAFGWLISLGMAGGILLESLSGLDYHIGMTTILVICVGYTLFGGMRAVIATDFIQALIIIVGVSFIAYWIIDNVGLESIHSNLTSEHPQLLDMLFPAAVMFLFNNIFFGLGEIFHSNVWWSRALSFKKNVAYKAYLTGGLLWLPIPIVTGFIALAAPQLGIFPPSPDMIGPTVAAAVLGKAGAIIVFIVIFSALASSLDSLLAATSDLVTQDIFHKKLKPKASDKTLMRFNRSCILGLGVVTWLLCLPRVATLGALLNFAGAFVASTIWPIVLGLYHRRLTGTYAACAMGFGTAFGMLSYFVVGFYVAALVSCAVSGLICLVGIFRSSDKFDWDTLNEKEQSNANQ | failed
7 | MIFMHPKTLEILKMFEEINKIPRRSKNEEKLALWLMEWAKNHNFEAKTDALNNVLIKVPPTPGYENSPAIVLQGHMDMVCEKCRDSGHDFSKDPIICIYEGDWLRGDGTSIGADNGIALAIGLVLAESGIKGEIEHPPLELLFTVDEETGLTGASGLEEDFFEGRILLNLDSEDEGIFILGCAGGQNSRIFLPLQWESFDYGKGSGFGLFRISAEGLEGGHSGVEIHRQRANGIQLLARMLSALKEKVGKENLRLVFFSGGSVHNAIPNYAEAFIVLSRNNEKQAEDFVSGLQKSFRGEYAVSDPEITLQLKEVENGIIFEASGGKITRKEVPSDRVFSVETEEKLYGVLLGMPHGVHRVSDTIPGLVETSNNLATVRTGEKEVRIVSSQRSSVMSRLAEVTEKVETVAKLAGARVEHECGYPAWEPDLQSGLLMKCRHAYSGTFGKEPEIKVVHAGLECGVIGSKCECIEMISFGPTIKDPHSPAERVYIPSIEKVWVFLENLMKSYRLEHHHHHH | not failed
8 | MLKTVRIIILGAMCTILSAAGFDPPQPAAAKSQADEYEYPFQDPSLPVQKRVSDLLSRLTLEEKVSLMHQYQPAVPRLGIPAFKTGTEALHGVAWLGEATVFPQAFGLAHTWDRYLIKQIGSAVGDEVRGFHHLDPAANGVNVWAPVVDLLRDPRWGRNEEGYSEDPFLTGEIATAYASGLRGDHPFYLKTVPTLKHFLAYNNETDRGFSSSSIDPRNMHEYYLKPFETAISKKAAYGLMPAYNSVNDKPAILSPLLDSTVKRRWAGDDFFIVSDAFDPSGIVNDHKYYDSHEKAHAHAVKAGIDNFTDQGENPELTRNALTGALKQGLISEKDLDQALANTFSIRFRTGEFDPDELNPYSRLTDDVINSPKHQLLAKKAAEKAIVLLKNDQDLLPFNARKNESIAVIGPFGNALYEDWYSGTMPYRKTPLDEIADKIGKDRVSFAEGLEQSGFKSALTGKFVTAGRDGKQPLTAAADKLEKSAAFDAADWGESIFTLRAQANGLYVSLQDDGRLIADQKQPNGRTVKETFQFEQQSDGTFAIKNTANGKYLTAGKDGTLTAAAEKPATAAEKFSKTIIKSGTDEAVQLAKSADKAIVFVGNNPYINGRETEDRKDITLPPAQENLLKAVSKANTNTVLVVTSSYPFALNWAKAHIPAIIYSAHGGQEAGSALADILYGDVNPGGRLTQTWHTSVKELPDMMNYDIIKGKRTYKYFVGKPLFPFGHGLSYTAFRYSDLSLSSDSIKKDGSVTIRVNVTNTGGRKGDEVVQLYTSPLFKTRVKQPNLDLKDFQRVELAPKETKTVTFKLKQTDLAFWDVTRETFAVERGPYRISVGSSAADIRKTKRIFVQGETIRERNLRRKTNAEDYDDYKGVLITEESKYGGDAVKSSTTNAWIAYHDVRFKGEKRIEAKVASSGAGEIGIFLDHPQKGKQIGSLKVPDTSGLQNWKTVKASVRKSTGTHRVFFVFKGKVAIDSFQFER | failed
9 | MPKLGMEPIRKAALVKATIVEIGRAGSLDVTVSQIAKRAGMSSALAHHYFGGKEALFIAAMRHVLSLYGAEVRGALLGAETPAARITAILQASFSATNFRREVVGAWLNFYVLAQTAPQARRLLAIYQRRLRSNLLVGLRPLAGERAADLADGLGALIDGLYLREVLKEGPPDSAAAVACARAYLNAHLKECPL | failed
10 | MGNEEEKMNADIFSYEGEGIQCVYDNKNWVMCIKNWKPNNDIENIRYLEVHHATDEQFVLLKGKAVLLAAVKADGACRIDVIPMEPYKVYNIPQGIWFNTITQKDTKLVYVQDAATTAENSEYCDMTQEELNEVKEKASACLD | failed
11 | MMSTHYIAGQWLAGQGETLESLDPVGQGVVWSGRGADATQVDAAVCAAREAFPAWARRPLEQRIELLERFAATLKSRADELARVIGEETGKPLWESATEVTSMVNKVAISVQAFRERTGEKSGPLADATAVLRHKPHGVVAVFGPYNFPGHLPNGHIVPALLAGNCVVFKPSELTPKVAELTLKAWIQAGLPAGVLNLVQGGRETGVALAAHRGLDGLFFTGSSRTGNLLHSQFGGQPQKILALEMGGNNPLVVEEVADLDAAVYTIIQSAFISAGQRCTCARRLLVPQGAWGDALLARLVAVSATLRVGRFDEQPAPFMGAVISLSAAEHLLKAQEHLIGKGAQPLLAMTQPIDGAALLTPGILDVSAVAERPDEEFFGPLLQVIRYSDFAAAIREANATQYGLAAGLLSDSRERFEQFLVESRAGIVNWNKQLTGAASSAPFGGIGASGNHRPSAYYAADYCAYPVASLESPSVSLPATLTPGIS | not failed
12 | MPTPFDVTILGGGLAGRLCAWQLAQTGVPPARIAVVERGARDGSGSAAYVAAAMLAPLAEAAVADRFVVELGLASLTLWRDWLPMLRTPVFFQQAGTLVVWHPADRGEASLFANHVRAATPPERIAADLRAVDAEGIGTLEPALAQRFSQGLYLAGEGQLDNRAVLDALATELEALGVQLRWNTAVADPHPQALAAAGLGARLVLDCRGLGAQPQWPQLRGLRGEVARIHAPDVTLTRPVRMLHPRYPIYIAPKPGHVYVIGATEIESDDMSPVSVRSTLELLSAAYAVHPAFGEARVLELCTQCRPTLPDHRPAIRWDGAGTLSVNGLYRHGYMIAPAVAQAAVAAAHALLDGRAIDAPASAWPGLFAAPASPEPVLPLEHHHHHH | not failed
13 | MPALACVDTSFVPPAYAFSDTAGDVFIPASSPTSAAVVVDRWSPSLSSSLYRIDGWGAPYFIANSSGNISVRPHGSETLPHQDIDLLKIVKKVTGPKSSGGLGLQLPLIVRFPDVLKNRLECLQSAFDYAIKSQGYDSHYQGVYPVKCNQDRFVVEDIVKFGSSFRFGLEAGSKPEILLAMSCLCKGSPDAFLVCNGFKDAEYISLALLGRKLALNTVIVLEQEEELDLVIELSQKMNVRPVIGLRAKLRTKHSGHFGSTSGEKGKFGLTTTQIVRVVRKLRQSGMLDCLQLLHFHIGSQIPSTSLLSDGVAEAAQLYCELVRLGAHMKVIDIGGGLGIDYDGSKSGESDLSVAYSLEEYAEAVVASVRVVCDRSSVKHPVICSESGRAIVSHHSVLIFEAVSADKPMVHQATPGDIQFLLEGNEEARANYEDLYAAVMRGDHESCLLYVDQLKQRCVEGFKEGVLSIEQLASVDGLCEWVLKAIGASDPVHTYNINLSVFTSIPDLWGIDQLFPIVPIHKLDQRPGARGILSDLTCDSDGKINKFIGGESSLPLHELDKNGSGGRYFLGMFLGGAYEEALGGVHNLFGGPSVVRVSQSDGPHSFAVTRAVPGQSSADVLRAMQHEPELMFQTLKHRAEEMMHTKGGSEGENEEEEEDDEFNNVAASLDRSFHNMPYLATEQASPSNSLSAAISNLGFYYCDEDVYDYISA | failed
14 | MSLAEGKWWRIMLVDTQLPALAASISALSQEGFDIIQCGNAIEAVPVAVKTHPHLIITEANMPKISGMDLFNSLKKNPQTASIPVIALSGRATAKEEAQLLDMGFIDFIAKPVNAIRLSARIKRVLKLLYEDLSAPPAREGHHHHHH | not failed
15 | MHVEQTRINMQSQGQSHQLPSAAHILLDQNPNSTGSNLVVKQNDIQSLSSVGLLELAHREYQAVDYESAEKHCMQLWRQDSTNTGVLLLLSSIHFQCRRLDKSAQFSTLAIKQNPVLAEAYSNLGNVFKERGQLQEALDNYRRAVRLKPDFIDGYINLAAALVAARDMESAVQAYITALQYNPDLYCVRSDLGNLLKALGRLEEAKACYLKAIETCPGFAVAWSNLGCVFNAQGEIWLAIHHFEKAVTLDPNFLDAYINLGNVLKEARIFDRAVAAYLRALNLSPNNAVVHGNLACVYYEQGLIDLAIDTYRRAIELQPNFPDAYCNLANALKEKGQVKEAEDCYNTALRLCSNHADSLNNLANIKREQGYIEEATRLYLKALEVFPDFAAAHSNLASVLQQQGKLKEALMHYKEAIRIQPTFADAYSNMGNTLKELQDVSGALQCYTRAIQINPAFADAHSNLASIHKDSGNIPEAIQSYRTALKLKPDFPDAYCNLAHCLQIVCDWTDYDIRMKKLVSIVTEQLEKNRLPSVHPHHSMLYPLTHDCRKAIAARHANLCLEKVHVLHKKPYNFLKKLPTKGRLRIGYLSSDFGNHPTSHLMQSVPGLHDRSKVEIFCYALSPDDGTTFRHKISRESENFVDLSQIPCNGKAADKIFNDGIHILVNMNGYTKGARNEIFALRPAPIQVMWLGYPGTSGASFMDYIITDSVTSPLELAYQYSEKLSYMPHTYFIGDHKQMFPHLKERIIVCDKQQSSVVDNVTVINATDLSPLVENTDVKEIKEVVNAQKPVEITHKVAELPNTTQIVSMIATGQVQTSLNGVVVQNGLATTQTNNKAATGEEVPQNIVITTRRQYMLPDDAVVYCNFNQLYKIDPQTLESWVEILKNVPKSVLWLLRFPAVGEQNIKKTVSDFGISPDRVIFSNVAAKEEHVRRGQLADICLDTPLCNGHTTSMDVLWTGTPVVTLPGETLASRVAASQLATLGCPELIARTREEYQNIAIRLGTKKEYLKALRAKVWKARVESPLFDCSQYAKGLEKLFLRMWEKYENGELPDHISAV | failed
